# Results from the supplement of paper PMC12636428.
# System: Saccharomyces cerevisiae
# Assay: transcriptional activation domain activity (GFP:mCherry ratio, weighted mean of sorted bins, harmonized to initial dataset scale) (arbitrary fluorescence ratio units); higher = stronger transcriptional activation
# Conditions: beta-estradiol 1 µM; induction time 4 h
# Procedure, shortened: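 The listed activation activity is a read-weighted mean of bin median fluorescence, averaged across barcodes and linearly mapped onto the initial dataset scale. Barcoded tiles, fused to an estradiol-inducible synthetic transcription factor, were integrated at URA3 in yeast diploids bearing a GFP reporter. Cells were held 4 hours at 30 °C in SC with 1 uM beta-estradiol, sorted into 8 GFP:mCherry bins, and sequenced, and tiles with fewer than 50 reads were excluded.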
row,Sequence,transcriptional activation domain activity
1,MSSLYFFDLMISWLLCFLAFRGDLFYMVFFFLYHFFFLLCGFWFFFCTDIHFY,59900
2,APSIRYRLPFDSLLFVFCGTLLCTLIFLREALIPHFPCWVLLWGAYILLPLCF,15900
3,NFDWWAKYNCESLRDAVIGFLTRDCLDSRVGYFRSVVRWIGCRLYFGLLIIFF,72700
4,FLSCLLAMEIIQHYMYVVAIKDRKAWIGDSPFELSMIGLWNLVIVWLKLLLPW,59900
5,EKPKPEESPKGRGKSSGEPAPIPPSNGAADSKPSSAGAGNGSGSGSGDGGRKG,39800
6,EEAEKVPEKKPKAEEKAAEDGESSNPVHKCWNCGRTKSAVWRTKVMEDGKAVR,33200
7,RLPNEWGWVLNVHLCIFYTIAFCFSVYQFCLDVIIGFPQMPWLESLSLLLPVL,37500
8,IAAAAEQEEEDEASTSSTNTSNGDANARAHAHAHWESRRERELHADHRGGAGG,31600
9,MLYQLFYFSRTKLIILVFFVLFSLLIISLFFFLFIPPFTFFFPFHMPEVFQNI,38200
10,MLLLSPFFPFLLPSSLSFFFPFPFISTLLSFCLSDTLFNLARSFFIAFLSTLF,42600
11,NLISLPLLKLCSEFAHVKWYEVLSHIVCFGFNGPTKPRSNNLVSLNLQCEHYK,48400
12,YSASPLEGDSSLPSSLPSSTEDCLLLSLENTITVIAGNQRQAYDSTSSTEEGT,16100
13,VQKNYIMQYGNSLIGHQLKTLVQVNAFHVYDLVDSMQFLLTKVISELATLLWF,59200
14,FALTFFWSLIGYWVPFFEAIHLFWWIGYRANYVPLMSADVAWRWFFKWDFPFF,62000
15,TGWCCLLMSIFSFNHAVLFVAFIFPNGVSCRKLLWNAMIGYVISLECSNLLLL,60800
16,MARQPSAPNAASDRGAATTTPRKPTTRSRTGCSACRKRRTKCDEARPACGHCV,44600
17,PYIVYPLKPCLSGPLCELYPSVMNLWAMCLHLILLCIQIPFLLSIPFWLLFPL,86900
18,MLNLVILAFVIVFSTFLIGCVDYAAIPTHHALSEVMLPHCYARLSPSTVLFLL,39700
19,RHASRHASRHASRDASPERRTLRSNLAAAFSGHGRRSRPASPERGGGGGGGAG,26800
20,MVFGVFFVYVYLSSWVFVLWFFSLSLSHGLAYLSFFPFSFLSFFPSLSLFPPC,62900
21,SGPSRERYFLFVFLGSFFWYFFPGYLFQALSWFSWVTWIWPHDTAIAQLFGYF,52100

row,Sequence,transcriptional activation domain activity
1,FRCLFLLFLLFSLICCRAISLQKHCLCLTYASSTALFVIVFILLLFWYLIIIT,76100
2,PAPKKAPAKPRGRKPKPTADSDNQEVEAEAKPKSARGKKRTVAEKAAEEGAQP,< 6570
3,VQFVLDLIVMVGVAGYNTVAQLYFPQLPHHKCSNSAATGSFGLFLICCYLVLF,53700
4,KKKRDNRREKPRKSRKGRSDDEIREGEEGESRRRKRKEGGGRARAATPQEENE,32800
5,APIDCPHRRLEVIMGLRPTRHIVLSILGLVITGFVSMDRADCIEFLLDLEPGD,39800
6,ALTLEYFYFECSTPVPDGLLTDPLPPLPKLLVIHFFFYLSQHTIYLLLHILSQ,60200
7,KHRSSINTVLVVGGDDKVVKQAGDALKGKLGVKGGGKGPRWSGKFIGVWKAAR,50100
8,VANHQIYADWLYVWCLTYFMGMHKDVLIVLKRSLKWVPVLGWGMQIFRFIFLA,70100
9,RTFLRWTLDTLAQCTTFEVMWLILTGVIQDYIDEYKRNRTLTKLLIEALIKSY,55500
10,DLLDQMILGLLRYCEADILVPKLRLLGATDRARMELLDAYSCKVWLLLLMFVT,56500
11,PELIGFCCFSMRFFVFIDLLGTLILPATVVYLIYLIIVVATRASAFPQIAIIM,59400
12,MALPLHFRYVSVTFIFLASFFWPVGFFSFFSLFFPATNSFLLFLSAFFRLVLF,54100
13,KQYCVRPNSGRIEPGKEVEVQVLLQAMREDPPPDARCRDKFLVQSVAMTGENE,29400
14,GGGGGVGGEKGEEGGGEEEEDEEEEEEEGEEDEEEEGGGAAAKEKGKGKGKGK,8640
15,VQVVGVLCVGWSLKVWTMHLLGDGGVAVLVKGRTRTVPMAWEEWGAVVEVMRG,40300
16,QGASAGVSPIFKKEKYTLKWKRVKEFNLIFVAVYQSLLHLGWIDRLLENISTI,67900
17,EREEEEEEEEEEEEVVVVAKAKANEREREEEAEEAEEVEEVVAKSRKAKGKAK,16600
18,NPQLFLLGGCLTLVHLLFSSLWLWLVSILFAHDREYPSFVLLSYFMIFYFWTS,54000
19,KYLIQSLILYPVPLLQVIITYFVQIKRYDISTVVGCSLLNVYYPNWMFLVFFL,58800
20,MASSTPRVRSLYRRLLRELPTHPSATPNTTTAASRTTPSKYRSTAHQKLSAPS,31700
